B1: NY-ESO CAR-T 24959N VH-VL (protein, part only; not given: scFv linker, hinge, signalling domains, not shown: large carriers)
chain, part: QLQLLESGPGLVKPSETLSLICTVSGGSIRGSSYYWGWIRQPPEKGLEWIGSIYSSGSTYYNPSLKSRVTISADTSKNQFSLKLSSVTAADTAVYYCARHGGITAVQLEFDPWGQGTLVTVSSDIQMTQSPSSLSASVGDRVTITCQASQDISNYLKWYQQKPGKAPKILIHDASNLEIGVPSRFSGSGAGTDFIFTISSLQPEDIGTYYCQQYDNLPITFGQGTRLEIK
B2: NY-ESO CAR-T 24959N VL-VH (protein, part only; not given: scFv linker, hinge, signalling domains, not shown: large carriers)
chain, part: DIQMTQSPSSLSASVGDRVTITCQASQDISNYLKWYQQKPGKAPKILIHDASNLEIGVPSRFSGSGAGTDFIFTISSLQPEDIGTYYCQQYDNLPITFGQGTRLEIKQLQLLESGPGLVKPSETLSLICTVSGGSIRGSSYYWGWIRQPPEKGLEWIGSIYSSGSTYYNPSLKSRVTISADTSKNQFSLKLSSVTAADTAVYYCARHGGITAVQLEFDPWGQGTLVTVSS
B3: NY-ESO CAR-T 24958N VL-VH (protein, part only; not given: scFv linker, hinge, signalling domains, not shown: large carriers)
chain, part: DIQMTQSPSSLSASVGDRVTITCRTSQSISRYLNWYQQKPGKAPKLLIFAASSLQSGVPSRFSGSGSGADFTLTISSLQPEDFATYYCQQSYSTPPITFGQGTRLEIKQVQLQESGPGLVKPSQTLSLTCTVSGGSIISDGYYWSWIRQHPGKGLEWIGYVDYSGNTYYNPSLKSRIIMSVDTSKNQFSLKLTSVTAADTAVYFCVREGPLRDAFEIWGQGTMVTVSS
B4: NY-ESO CAR-T 24958N VH-VL (protein, part only; not given: scFv linker, hinge, signalling domains, not shown: large carriers)
chain, part: QVQLQESGPGLVKPSQTLSLTCTVSGGSIISDGYYWSWIRQHPGKGLEWIGYVDYSGNTYYNPSLKSRIIMSVDTSKNQFSLKLTSVTAADTAVYFCVREGPLRDAFEIWGQGTMVTVSSDIQMTQSPSSLSASVGDRVTITCRTSQSISRYLNWYQQKPGKAPKLLIFAASSLQSGVPSRFSGSGSGADFTLTISSLQPEDFATYYCQQSYSTPPITFGQGTRLEIK

Biological target: HLA.A2 with NY-ESO-1: 157-165 on IM9 cells
Test: cell-based or functional assay

Binder	Max Fold (RLU), NFAT-luciferase [fold]
B1	1.1
B2	0.8
B3	0.9
B4	1

Biological target: HLA.A2/hB2M/NY-ESO-1: 157-165 WT on 3T3 cells (human) (UniProt P04439)
Test: cell-based or functional assay

Binder	EC50 (#of APC cells), NFAT-luciferase [APC cells]	Max Fold (RLU), NFAT-luciferase [fold]
B1	14200	13.3
B2	24000	28.6
B3	19900	6.4
B4	24500	6.7

— US20220251215A1
